Assay results: patent publication US6828106 (dated 2004)
Where no end group is shown, it is not given here. fluorescein or rhodamine = not defined here

Assays:
[1] = target: T1, peptide 1 (Example 8), labeled with fluorescein (labeled with fluorescein (site not stated)); assay: FRET (fluorescein/rhodamine) and fluorescence polarization (fluorescein/biotin with streptavidin), 6 µM total peptide, 1:1
T1 construct: Heterodimer partner in the chymotrypsin assays
T1 peptide: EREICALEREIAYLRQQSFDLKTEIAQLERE

[2] = target: T2, reporter peptide 1 (Example 10), labeled with fluorescein (labeled with fluorescein (site not stated)); assay: FRET (fluorescein/rhodamine), 5 µM total peptide, 1:1
T2 construct: Heterodimer partner in the thrombin assay
T2 peptide: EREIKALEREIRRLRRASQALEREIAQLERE

[3] = target: the molecule itself; assay: FRET between the fluorescein- and rhodamine-labelled forms of the same peptide (homodimer)
[4] = target: the molecule itself; assay: FRET (fluorescein/rhodamine) and fluorescence polarization (fluorescein/biotin), 6 µM total peptide, 6:1
[5] = target: T3, peptide C labelled with rhodamine (CR) (not fully specified; N-terminal acetyl; C-terminal amide; labelled with rhodamine (or vice versa with fluorescein)); assay: FRET between fluorescein- and rhodamine-labelled peptides
T3 construct: Artificial designer peptide, one partner of a heterodimeric coiled coil
T3 peptide: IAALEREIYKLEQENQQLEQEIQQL

B1: peptide 2 (Example 8), labeled with rhodamine (FRET) or biotin (FP) (peptide)
peptide: LRQRIQCLRQKIAYLRQQSFDLKTQIAQLRQR
modifications: also: rhodamine or biotin label, site not given here
notes: Heterodimer partner in the chymotrypsin assays; Both labelled forms are written as one molecule
B1: binds [1].

B2: reporter peptide 2 (Example 10), labeled with rhodamine (peptide)
peptide: LRQRIQCLRYRIRRLRRASQALRQRIAQLKQR
modifications: also: rhodamine label, site not given here
notes: Heterodimer partner in the thrombin assay
B2: binds [2].

B3: Peptide 4 (Example 5, caspase 2, 3, 7 site) (peptide)
peptide: RMKQLEDKVEELLDENDHLENEVACLKKLVGER
modifications: also: fluorescein or rhodamine label, site not given here
notes: GCN4-derived homodimeric reporter; Both labelled forms are written as one molecule
B3: binds [3].

B4: Peptide 2 (Example 3, TEV protease cleavage site) (peptide)
peptide: RMKQLEDKVENLYSQSYHLENEVAC(fluorescein or rhodamine)LKKLVGER
modifications: reading uncertain
notes: GCN4-derived homodimeric reporter; The fluorescein- and rhodamine-labelled forms are written as one molecule
B4: binds [3].

B5: reporter peptide (Example 9, TEV) (peptide)
peptide: KGRMRCLEDRVENLYSQSYHLENEVARLRRLVGELAAK
modifications: not fully specified; also: homodimer
notes: Forms a homodimer; All labelled forms are written as one molecule (6:1 ratio R:F or biotin:F)
B5: binds [4].

B6: peptide B labelled with fluorescein (BF) (peptide)
peptide: IAALRERICYLRERNQQLRQRIQQL
modifications: not fully specified; also: fluorescein label, site not given here
notes: Artificial designer peptide, one partner of a heterodimeric coiled coil
B6: binds [5].
